Assay results taken from doi:10.1101/2023.04.17.537135 (bioRxiv, 2023).

T1: His-tagged AHL10 S314D (phosphomimic) (Arabidopsis thaliana, UniProt O22812 1-351, S314D)
T1 sequence (looked up): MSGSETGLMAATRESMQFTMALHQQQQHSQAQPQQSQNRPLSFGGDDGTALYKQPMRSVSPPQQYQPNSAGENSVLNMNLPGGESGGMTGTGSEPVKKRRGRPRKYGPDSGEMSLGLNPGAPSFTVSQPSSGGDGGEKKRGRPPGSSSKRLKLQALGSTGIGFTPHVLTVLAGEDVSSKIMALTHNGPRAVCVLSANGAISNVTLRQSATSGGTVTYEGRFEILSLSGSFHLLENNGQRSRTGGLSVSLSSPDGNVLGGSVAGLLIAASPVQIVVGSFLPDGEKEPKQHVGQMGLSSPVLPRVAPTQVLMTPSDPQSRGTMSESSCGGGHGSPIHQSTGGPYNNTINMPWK

T2: His-tagged AHL10 S313D (phosphomimic) (Arabidopsis thaliana, UniProt O22812 1-351, S313D)
T2 sequence (looked up): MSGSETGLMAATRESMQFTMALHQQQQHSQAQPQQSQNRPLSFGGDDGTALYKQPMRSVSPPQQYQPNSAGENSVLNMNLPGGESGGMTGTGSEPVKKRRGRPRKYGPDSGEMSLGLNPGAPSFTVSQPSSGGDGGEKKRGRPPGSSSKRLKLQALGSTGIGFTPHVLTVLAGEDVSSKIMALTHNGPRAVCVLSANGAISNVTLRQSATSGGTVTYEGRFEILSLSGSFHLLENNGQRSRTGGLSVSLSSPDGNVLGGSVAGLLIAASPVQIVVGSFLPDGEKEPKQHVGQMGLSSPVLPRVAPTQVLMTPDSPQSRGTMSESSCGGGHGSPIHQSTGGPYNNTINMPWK

T3: His-tagged AHL10, non-mutated wild type (Arabidopsis thaliana, UniProt O22812 1-351)
T3 sequence (looked up): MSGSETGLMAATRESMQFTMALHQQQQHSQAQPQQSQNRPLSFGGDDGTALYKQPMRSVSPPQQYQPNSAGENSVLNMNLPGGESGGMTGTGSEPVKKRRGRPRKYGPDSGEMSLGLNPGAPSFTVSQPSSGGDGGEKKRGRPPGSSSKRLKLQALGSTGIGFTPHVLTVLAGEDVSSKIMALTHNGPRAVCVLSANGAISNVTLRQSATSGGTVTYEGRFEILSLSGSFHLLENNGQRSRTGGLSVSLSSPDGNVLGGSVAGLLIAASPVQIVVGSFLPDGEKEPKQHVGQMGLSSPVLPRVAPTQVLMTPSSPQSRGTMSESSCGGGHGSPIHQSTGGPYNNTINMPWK


Tests used:
Assay in all cases: pull-down
[1] = biological target: T1, His-tagged AHL10 S314D (phosphomimic)
[2] = biological target: T2, His-tagged AHL10 S313D (phosphomimic)
[3] = biological target: T3, His-tagged AHL10, non-mutated wild type

| binding result [1] | binding result [2] | binding result [3] | Binder |
| --- | --- | --- | --- |
| binds | binds | binds | GST-tagged RRP6L1 C-terminal 337 amino acids (domain or fragment, Arabidopsis thaliana, UniProt Q0WVE8 301-637, looked up) YKRSYDVCMQLYEKELWTRDSYLHVYGVQTGNLNAVQLSIVAGLCEWRDRIARADDESTGYVLPNKTLFDIAKEMPIVVAQLRRLLKSKLPYLERNFDAVISVIRRSMQNAAAFEPVVQSLKDRRPETVVEMNIEPKIEKTDTGASASSLSLEKVCVDDSKKQSSGFGVLPLKRKLESDKTVVEKNIEPKIEKTGTEASASSLSSKKVCVDDSKKQSSGFGVLLSKRKFESDNKVKEEVKVSKSKPDKVIIVVDDDDDDDDDESYEQSTKAADALDRVSETPSKGSPSLTQKPKTCNTEVIVLDDDDDSESREDEDMRRRSEKHRRFMNMKRGFLNI |
| binds | binds | binds | GST-tagged RRP6L1 N-terminal 300 amino acids (domain or fragment, Arabidopsis thaliana, UniProt Q0WVE8 1-300, looked up) MRFDDPMDEFKRNRKMEEDSKKVIDVKVAESDKGFAKFGKAEVPFHIPTLTKPQEEYKILVDNANNPFEHVLLEKSEDGLRFIHPLEELSVMDFVDRNLSEMRPVKPLPLEETPFKLVEEVKDLEDLAAALQSVEEFAVDLEHNQYRTFQGLTCLMQISTRTEDYIVDIFKLWDHIGPYLRELFKDPKKKKVIHGADRDIIWLQRDFGIYVCNLFDTGQASRVLKLERNSLEFLLKHYCGVAANKEYQKADWRIRPLPDVMKRYAREDTHYLLYIYDVMRMELHTMAKEDEQSDSPLVEV |
